In patent US20210023177A1:

Tests used:
[1] = target: human Claudin 18 splice variant 2 (CLDN18.2) (human); assay: cell-based or functional assay
[2] = target: human Claudin 18 splice variant 2 (CLDN18.2) (human)

ADCC EC50 (ng/ml), BxPC3 LVT cells [1]: 47.7 ng/mL
ADCC EC50 (ng/ml), CAPAN1-LVT cells [1]: 65 ng/mL
ADCC EC50 (ng/ml), DANG cells [1]: 4980 ng/mL
ADCC EC50 (ng/ml), DANG-LVT cells [1]: 52.3 ng/mL
ADCC EC50 (ng/ml), HPAC-LVT cells [1]: 117 ng/mL
ADCC EC50 (ng/ml), MiaPaCa2-LVT cells [1]: 23.4 ng/mL
ADCC EC50 (ng/ml), Panc05.04 cells [1]: 5730 ng/mL
ADCC EC50 (ng/ml), Patu8902-LVT cells [1]: 49.2 ng/mL
ADCC EC50 (ng/ml), Suit2-LVT cells [1]: 73.2 ng/mL
ADCC EC50 (ng/ml), YAPC-LVT cells [1]: 29.5 ng/mL
ADCC Max. lysis (%), BxPC3 LVT cells, human PBMC E:T 40:1 [1]: 90.6%
ADCC Max. lysis (%), CAPAN1-LVT cells [1]: 92.6%
ADCC Max. lysis (%), DANG cells [1]: 52.5%
ADCC Max. lysis (%), DANG-LVT cells [1]: 85.9%
ADCC Max. lysis (%), HPAC-LVT cells [1]: 76.2%
ADCC Max. lysis (%), MiaPaCa2-LVT cells [1]: 78.1%
ADCC Max. lysis (%), Panc05.04 cells [1]: 67.1%
ADCC Max. lysis (%), Patu8902-LVT cells [1]: 74.1%
ADCC Max. lysis (%), Suit2-LVT cells [1]: 81.2%
ADCC Max. lysis (%), YAPC-LVT cells [1]: 91.5%
CDC EC50 (ng/ml), CAPAN1-LVT cells [1]: 970 ng/mL
CDC EC50 (ng/ml), MiaPaCa2-LVT cells [1]: 340 ng/mL
CDC EC50 (ng/ml), Patu8902-LVT cells [1]: 291 ng/mL
CDC EC50, gemcitabine pretreated MiaPaCa-2-LVT cells [1]: 4.68 µg/mL
CDC EC50, medium cultivated MiaPaCa-2-LVT cells [1]: 7.67 µg/mL
CDC Max. lysis (%), CAPAN1-LVT cells [1]: 79.1%
CDC Max. lysis (%), MiaPaCa2-LVT cells [1]: 78.4%
CDC Max. lysis (%), Patu8902-LVT cells [1]: 76.7%
CLDN18 surface expression (FACS), % of cells stained [2]: 81.7%
B1: IMAB362 (antibody, INN chains, looked up, V domains shown)
VH: QVQLQQPGAELVRPGASVKLSCKASGYTFTSYWINWVKQRPGQGLEWIGNIYPSDSYTNYNQKFKDKATLTVDKSSSTAYMQLSSPTSEDSAVYYCTRSWRGNSFDYWGQGTTLTVSS
VL: DIVMTQSPSSLTVTAGEKVTMSCKSSQSLLNSGNQKNYLTWYQQKPGQPPKLLIYWASTRESGVPDRFTGSGSGTDFTLTISSVQAEDLAVYYCQNDYSYPFTFGSGTKLEIKR
